Measured values published in patent publication US20240408238A1.

Molecular target: Nme2Cas9 expressed from plasmid in HEK293T cells (human-codon-optimized, NLSs and 3xHA tag) (Neisseria meningitidis strain De11444)
Experiment: cell-based or functional assay

| Substance | genome editing in HEK293T cells at varied ratios of Acr plasmid to Cas9 plasmid: ratio giving full inhibition (mass ratio Acr plasmid:Nme2Cas9 plasmid) |
| --- | --- |
| AcrIIC1Nme | 2 |
| AcrIIC4Hpa | 1 |
